{"source": "paper PMC6358511", "target": "EGFRvIII, biotinylated (human, UniProt P00533 25-30+298-645, V30G;internal_change)", "test": "BLI", "data": [{"binder": "GGACGGAUUUAAUCGCCGUAGAAAAGCAUGUCAAAGCCGGAACCGUCC (XNA, 2'-fluoro at all C and U; 2'-OH purines; 5' alkyne)", "note": "[ME07 (alkyne-modified MinE07)]", "values": [{"measurement": "Kd", "result": 271, "unit": "nM"}]}]}
